Laboratory results as given in paper PMC5016158.

Target: Lucy-Flag-rsstr3-TAS2R14-HSV (rat | human) (UniProt P30936)
Sequence of UniProt P30936 (P30936 whole entry): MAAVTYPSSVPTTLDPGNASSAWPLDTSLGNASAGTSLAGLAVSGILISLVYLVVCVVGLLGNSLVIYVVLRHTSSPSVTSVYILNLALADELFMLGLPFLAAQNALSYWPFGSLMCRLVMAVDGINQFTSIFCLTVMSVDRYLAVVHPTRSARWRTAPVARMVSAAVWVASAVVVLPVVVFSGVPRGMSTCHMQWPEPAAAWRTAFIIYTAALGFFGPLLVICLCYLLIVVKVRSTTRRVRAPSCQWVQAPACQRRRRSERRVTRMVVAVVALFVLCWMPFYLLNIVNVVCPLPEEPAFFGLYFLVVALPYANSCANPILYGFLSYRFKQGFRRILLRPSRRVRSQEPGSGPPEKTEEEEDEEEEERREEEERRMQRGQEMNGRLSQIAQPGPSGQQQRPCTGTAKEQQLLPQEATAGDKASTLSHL

impairment by ISO (10 uM) of the relaxation of HASM cells (endogenous receptors) to the TAS2R14 agonist FFA (100 uM), magnetic twisting cytometry: 50%
Substance: HA-β2AR (from UniProt P07550 1-413) (receptor)
